Positions count from the first letter of the chain named. In names and notes the source's numbering stands.
Target: T1, PYR1 (Arabidopsis thaliana, UniProt O49686)
T1 construct: expressed in transfected cells; host or cells: S. cerevisiae strain Y190
T1 sequence (O49686 1-191): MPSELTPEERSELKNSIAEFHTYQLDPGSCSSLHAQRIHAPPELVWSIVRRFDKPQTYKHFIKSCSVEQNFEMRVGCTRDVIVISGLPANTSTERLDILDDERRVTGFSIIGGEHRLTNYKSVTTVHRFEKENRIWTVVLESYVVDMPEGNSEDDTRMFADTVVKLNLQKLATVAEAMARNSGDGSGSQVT
Assay: Yeast two hybrid of pACT-HAB1 site saturation mutants with pBD-PYR1 on 10 μM ABA, β-galactosidase staining
Assay type: cell-based
Design: key: x: Mutations in HAB1 that disrupt HAB1 interaction with PYR1
Settings: S. cerevisiae Y190, 10 μM ABA; dead = lack of detectable staining in comparison to wild type control
Source text: To systematically define mutations in HAB1 that disrupt its binding to PYR1, we used site saturation mutagenesis to create a collection all possible single amino acid substitutions in 20 residues lining the PYR1 binding interface, and then assayed the ability of each mutant to bind PYR1 using the yeast two hybrid assay described above. We targeted the following residues for mutagenesis: R199, 5200, E201, E203, H245, G246, G247, S322, E323, T324, K381, I383, Q384, W385, Q386, R389, F391, G392, V393, and Y404. To create the collection of mutations, mutagenic “NNK” site directed mutagenesis primers were synthesized for each of the 20 positions and the primers used in QuickChange site-directed mutagenesis reactions using a previously described pACT-HAB1 template (Park et al., 2009). We note that this clone uses a HAB1 cDNA lacking its three N-terminal amino acids. The reaction products were digested with DpnI, and transformed into competent Escherichia coli DH5α cells and plasmid DNA for 96 colonies per site was isolated using Bioneer AccuPrep® Plasmid Mini Extraction Kit (Alameda, Calif.) and sequenced to identify mutants. This process identified most of the 19 desired mutations per target site; the remaining mutations were constructed directly using specific mutagenic primers. To interrogate the effects of the mutations on PYR1-HAB1 interactions, the mutant clones were individually transformed into S. cerevisiae strain Y190 containing pBD-PYR1 (Park et al., 2009). Yeast transformants were selected for the presence of plasmids on selective SD (-Leu,-Trp) plates and then spotted onto SD (-Leu,-Trp) agar plates supplemented with 10 μM ABA. After incubating the test plates at 30° C. for two days, the colonies were lysed with chloroform and stained to reveal […] expression levels. “Dead” mutants were defined by lack of detectable staining in comparison to a wild type pBD-PYR1/pACT-HAB1 control. This screening effort defined 163 mutations that disrupt the ABA-induced PYR1/HAB1 interaction (Table 2).

B1: W385M: HAB1 mutant (protein, UniProt Q9CAJ0 23-511, looked up, variant W385M)
Protein phosphatase 2C 16: SPVEITQLKNVTDAADLLSDSENQSFCNGGTECTMEDVSELEEVGEQDLLKTLSDTRSGSSNVFDEDDVLSVVEDNSAVISEGLLVVDAGSELSLSNTAMEIDNGRVLATAIIVGESSIEQVPTAEVLIAGVNQDTNTSEVVIRLPDENSNHLVKGRSVYELDCIPLWGTVSIQGNRSEMEDAFAVSPHFLKLPIKMLMGDHEGMSPSLTHLTGHFFGVYDGHGGHKVADYCRDRLHFALAEEIERIKDELCKRNTGEGRQVQWDKVFTSCFLTVDGEIEGKIGRAVVGSSDKVLEAVASETVGSTAVVALVCSSHIVVSNCGDSRAVLFRGKEAMPLSVDHKPDREDEYARIENAGGKVIQMQGARVFGVLAMSRSIGDRYLKPYVIPEPEVTFMPRSREDECLILASDGLWDVMNNQEVCEIARRRILMWHKKNGAPPLAERGKGIDPACQAAADYLSMLALQKGSKDNISIIVIDLKAQRKFKTRT
- Mutations in HAB1 that disrupt HAB1 interaction with PYR1: x

B2: R389L: HAB1 mutant (protein, UniProt Q9CAJ0 23-511, looked up, variant R389L)
Protein phosphatase 2C 16: B1 Protein phosphatase 2C 16 with M363W, R367L
- Mutations in HAB1 that disrupt HAB1 interaction with PYR1: x

B3: W385G: HAB1 mutant (protein, UniProt Q9CAJ0 23-511, looked up, variant W385G)
Protein phosphatase 2C 16: B1 Protein phosphatase 2C 16 with M363G
- Mutations in HAB1 that disrupt HAB1 interaction with PYR1: x

B4: W385R: HAB1 mutant (protein, UniProt Q9CAJ0 23-511, looked up, variant W385R)
Protein phosphatase 2C 16: B1 Protein phosphatase 2C 16 with M363R
- Mutations in HAB1 that disrupt HAB1 interaction with PYR1: x

B5: W385H: HAB1 mutant (protein, UniProt Q9CAJ0 23-511, looked up, variant W385H)
Protein phosphatase 2C 16: B1 Protein phosphatase 2C 16 with M363H
- Mutations in HAB1 that disrupt HAB1 interaction with PYR1: x

B6: R389M: HAB1 mutant (protein, UniProt Q9CAJ0 23-511, looked up, variant R389M)
Protein phosphatase 2C 16: B1 Protein phosphatase 2C 16 with M363W, R367M
- Mutations in HAB1 that disrupt HAB1 interaction with PYR1: x

B7: W385I: HAB1 mutant (protein, UniProt Q9CAJ0 23-511, looked up, variant W385I)
Protein phosphatase 2C 16: B1 Protein phosphatase 2C 16 with M363I
- Mutations in HAB1 that disrupt HAB1 interaction with PYR1: x

B8: W385F: HAB1 mutant (protein, UniProt Q9CAJ0 23-511, looked up, variant W385F)
Protein phosphatase 2C 16: B1 Protein phosphatase 2C 16 with M363F
- Mutations in HAB1 that disrupt HAB1 interaction with PYR1: x

B9: W385P: HAB1 mutant (protein, UniProt Q9CAJ0 23-511, looked up, variant W385P)
Protein phosphatase 2C 16: B1 Protein phosphatase 2C 16 with M363P
- Mutations in HAB1 that disrupt HAB1 interaction with PYR1: x

B10: W385V: HAB1 mutant (protein, UniProt Q9CAJ0 23-511, looked up, variant W385V)
Protein phosphatase 2C 16: B1 Protein phosphatase 2C 16 with M363V
- Mutations in HAB1 that disrupt HAB1 interaction with PYR1: x

B11: R389A: HAB1 mutant (protein, UniProt Q9CAJ0 23-511, looked up, variant R389A)
Protein phosphatase 2C 16: B1 Protein phosphatase 2C 16 with M363W, R367A
- Mutations in HAB1 that disrupt HAB1 interaction with PYR1: x

B12: R389P: HAB1 mutant (protein, UniProt Q9CAJ0 23-511, looked up, variant R389P)
Protein phosphatase 2C 16: B1 Protein phosphatase 2C 16 with M363W, R367P
- Mutations in HAB1 that disrupt HAB1 interaction with PYR1: x

B13: R389F: HAB1 mutant (protein, UniProt Q9CAJ0 23-511, looked up, variant R389F)
Protein phosphatase 2C 16: B1 Protein phosphatase 2C 16 with M363W, R367F
- Mutations in HAB1 that disrupt HAB1 interaction with PYR1: x

B14: R389E: HAB1 mutant (protein, UniProt Q9CAJ0 23-511, looked up, variant R389E)
Protein phosphatase 2C 16: B1 Protein phosphatase 2C 16 with M363W, R367E
- Mutations in HAB1 that disrupt HAB1 interaction with PYR1: x

B15: W385K: HAB1 mutant (protein, UniProt Q9CAJ0 23-511, looked up, variant W385K)
Protein phosphatase 2C 16: B1 Protein phosphatase 2C 16 with M363K
- Mutations in HAB1 that disrupt HAB1 interaction with PYR1: x

B16: W385Y: HAB1 mutant (protein, UniProt Q9CAJ0 23-511, looked up, variant W385Y)
Protein phosphatase 2C 16: B1 Protein phosphatase 2C 16 with M363Y
- Mutations in HAB1 that disrupt HAB1 interaction with PYR1: x

B17: R389W: HAB1 mutant (protein, UniProt Q9CAJ0 23-511, looked up, variant R389W)
Protein phosphatase 2C 16: B1 Protein phosphatase 2C 16 with M363W, R367W
- Mutations in HAB1 that disrupt HAB1 interaction with PYR1: x

B18: W385D: HAB1 mutant (protein, UniProt Q9CAJ0 23-511, looked up, variant W385D)
Protein phosphatase 2C 16: B1 Protein phosphatase 2C 16 with M363D
- Mutations in HAB1 that disrupt HAB1 interaction with PYR1: x

B19: R389C: HAB1 mutant (protein, UniProt Q9CAJ0 23-511, looked up, variant R389C)
Protein phosphatase 2C 16: B1 Protein phosphatase 2C 16 with M363W, R367C
- Mutations in HAB1 that disrupt HAB1 interaction with PYR1: x

B20: W385S: HAB1 mutant (protein, UniProt Q9CAJ0 23-511, looked up, variant W385S)
Protein phosphatase 2C 16: B1 Protein phosphatase 2C 16 with M363S
- Mutations in HAB1 that disrupt HAB1 interaction with PYR1: x

B21: R389V: HAB1 mutant (protein, UniProt Q9CAJ0 23-511, looked up, variant R389V)
Protein phosphatase 2C 16: B1 Protein phosphatase 2C 16 with M363W, R367V
- Mutations in HAB1 that disrupt HAB1 interaction with PYR1: x

B22: R389Y: HAB1 mutant (protein, UniProt Q9CAJ0 23-511, looked up, variant R389Y)
Protein phosphatase 2C 16: B1 Protein phosphatase 2C 16 with M363W, R367Y
- Mutations in HAB1 that disrupt HAB1 interaction with PYR1: x

B23: R389D: HAB1 mutant (protein, UniProt Q9CAJ0 23-511, looked up, variant R389D)
Protein phosphatase 2C 16: B1 Protein phosphatase 2C 16 with M363W, R367D
- Mutations in HAB1 that disrupt HAB1 interaction with PYR1: x

B24: R389R: HAB1, x printed at the wild-type residue; see doubts (protein, UniProt Q9CAJ0 23-511, looked up)
Protein phosphatase 2C 16: B1 Protein phosphatase 2C 16 with M363W
- Mutations in HAB1 that disrupt HAB1 interaction with PYR1: x

B25: W385C: HAB1 mutant (protein, UniProt Q9CAJ0 23-511, looked up, variant W385C)
Protein phosphatase 2C 16: B1 Protein phosphatase 2C 16 with M363C
- Mutations in HAB1 that disrupt HAB1 interaction with PYR1: x

B26: W385T: HAB1 mutant (protein, UniProt Q9CAJ0 23-511, looked up, variant W385T)
Protein phosphatase 2C 16: B1 Protein phosphatase 2C 16 with M363T
- Mutations in HAB1 that disrupt HAB1 interaction with PYR1: x

B27: R389T: HAB1 mutant (protein, UniProt Q9CAJ0 23-511, looked up, variant R389T)
Protein phosphatase 2C 16: B1 Protein phosphatase 2C 16 with M363W, R367T
- Mutations in HAB1 that disrupt HAB1 interaction with PYR1: x

B28: R389Q: HAB1 mutant (protein, UniProt Q9CAJ0 23-511, looked up, variant R389Q)
Protein phosphatase 2C 16: B1 Protein phosphatase 2C 16 with M363W, R367Q
- Mutations in HAB1 that disrupt HAB1 interaction with PYR1: x

B29: W385N: HAB1 mutant (protein, UniProt Q9CAJ0 23-511, looked up, variant W385N)
Protein phosphatase 2C 16: B1 Protein phosphatase 2C 16 with M363N
- Mutations in HAB1 that disrupt HAB1 interaction with PYR1: x

B30: W385E: HAB1 mutant (protein, UniProt Q9CAJ0 23-511, looked up, variant W385E)
Protein phosphatase 2C 16: B1 Protein phosphatase 2C 16 with M363E
- Mutations in HAB1 that disrupt HAB1 interaction with PYR1: x

B31: W385Q: HAB1 mutant (protein, UniProt Q9CAJ0 23-511, looked up, variant W385Q)
Protein phosphatase 2C 16: B1 Protein phosphatase 2C 16 with M363Q
- Mutations in HAB1 that disrupt HAB1 interaction with PYR1: x
